Test system: Escherichia coli TOP10
Test: shrunken log2 fold change of peptide-encoding DNA abundance (4.5 h post-induction vs induction); higher = less antimicrobial activity (less host growth inhibition)
Conditions: time post-induction: 4.5 h; library: site-saturation at positions 5, 18, 19, 20
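Further: peptides expressed intracellularly from a pBAD plasmid library in pooled LB shake-flask culture, induced with 0.3% L-arabinose, DNA abundance read by NGS, three biological replicates, DESeq2 with apeglm shrinkage.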

| Sequence | shrunken log2 fold change |
| --- | --- |
| RRIRLRPPRLPRPRPRPHEPPRP | -0.0213 |
| RRIRLRPPRLPRPRPRPHFDPRP | -0.212 |
| RRIRLRPPRLPRPRPRPHFMPRP | 0.0603 |
| RRIRLRPPRLPRPRPRPHFPPRP | 2.38 |
| RRIRLRPPRLPRPRPRPHGMPRP | -0.177 |
| RRIRLRPPRLPRPRPRPHILPRP | -0.0127 |
| RRIRLRPPRLPRPRPRPHITPRP | -0.824 |
| RRIRLRPPRLPRPRPRPHKPPRP | 0.119 |
| RRIRLRPPRLPRPRPRPHLFPRP | -0.0266 |
| RRIRLRPPRLPRPRPRPHLIPRP | -0.151 |
| RRIRLRPPRLPRPRPRPHLLPRP | -0.0156 |
| RRIRLRPPRLPRPRPRPHMSPRP | -0.325 |
| RRIRLRPPRLPRPRPRPHNCPRP | -0.192 |
| RRIRLRPPRLPRPRPRPHPPPRP | 1 |
| RRIRLRPPRLPRPRPRPHQDPRP | -0.308 |
| RRIRLRPPRLPRPRPRPHQQPRP | 0.0445 |
| RRIRLRPPRLPRPRPRPHREPRP | -0.969 |
| RRIRLRPPRLPRPRPRPHSHPRP | 1.65 |
| RRIRLRPPRLPRPRPRPHVQPRP | -0.528 |
| RRIRLRPPRLPRPRPRPHWCPRP | -0.0751 |
| RRIRLRPPRLPRPRPRPIADPRP | -0.0951 |
| RRIRLRPPRLPRPRPRPICYPRP | -0.284 |
| RRIRLRPPRLPRPRPRPIDFPRP | -0.384 |
| RRIRLRPPRLPRPRPRPIHAPRP | 0.111 |
| RRIRLRPPRLPRPRPRPIKAPRP | -0.0378 |

| Sequence | shrunken log2 fold change |
| --- | --- |
| RRIRLRPPRLPRPRPRPILAPRP | -0.0814 |
| RRIRLRPPRLPRPRPRPILHPRP | -0.231 |
| RRIRLRPPRLPRPRPRPIMHPRP | 0.0628 |
| RRIRLRPPRLPRPRPRPINGPRP | 0.015 |
| RRIRLRPPRLPRPRPRPIPEPRP | 0.0268 |
| RRIRLRPPRLPRPRPRPIREPRP | -0.27 |
| RRIRLRPPRLPRPRPRPISWPRP | 0.0554 |
| RRIRLRPPRLPRPRPRPITEPRP | 0.0241 |
| RRIRLRPPRLPRPRPRPITLPRP | -0.553 |
| RRIRLRPPRLPRPRPRPITWPRP | -0.543 |
| RRIRLRPPRLPRPRPRPIVEPRP | 0.0406 |
| RRIRLRPPRLPRPRPRPIVYPRP | -0.43 |
| RRIRLRPPRLPRPRPRPKCDPRP | -0.461 |
| RRIRLRPPRLPRPRPRPKCIPRP | -0.9 |
| RRIRLRPPRLPRPRPRPKCKPRP | -0.223 |
| RRIRLRPPRLPRPRPRPKCVPRP | 0.0912 |
| RRIRLRPPRLPRPRPRPKDWPRP | 0.467 |
| RRIRLRPPRLPRPRPRPKEDPRP | -0.184 |
| RRIRLRPPRLPRPRPRPKEYPRP | -0.567 |
| RRIRLRPPRLPRPRPRPKGEPRP | 0.149 |
| RRIRLRPPRLPRPRPRPKGKPRP | -0.106 |
| RRIRLRPPRLPRPRPRPKHMPRP | -0.0682 |
| RRIRLRPPRLPRPRPRPKIGPRP | -0.251 |
| RRIRLRPPRLPRPRPRPKILPRP | -0.143 |
| RRIRLRPPRLPRPRPRPKIVPRP | -0.142 |

| Sequence | shrunken log2 fold change |
| --- | --- |
| RRIRLRPPRLPRPRPRPKKDPRP | 0.0575 |
| RRIRLRPPRLPRPRPRPKKLPRP | 0.111 |
| RRIRLRPPRLPRPRPRPKLMPRP | -0.162 |
| RRIRLRPPRLPRPRPRPKMCPRP | -0.0794 |
| RRIRLRPPRLPRPRPRPKMNPRP | -0.37 |
| RRIRLRPPRLPRPRPRPKMSPRP | -0.0245 |
| RRIRLRPPRLPRPRPRPKNRPRP | 0.177 |
| RRIRLRPPRLPRPRPRPKNYPRP | -0.458 |
| RRIRLRPPRLPRPRPRPKPQPRP | 0.212 |
| RRIRLRPPRLPRPRPRPKPVPRP | 0.165 |
| RRIRLRPPRLPRPRPRPKQDPRP | -0.199 |
| RRIRLRPPRLPRPRPRPKSGPRP | 0.143 |
| RRIRLRPPRLPRPRPRPKSIPRP | -0.189 |
| RRIRLRPPRLPRPRPRPKSPPRP | 0.0414 |
| RRIRLRPPRLPRPRPRPKTKPRP | -0.021 |
| RRIRLRPPRLPRPRPRPKTTPRP | 0.196 |
| RRIRLRPPRLPRPRPRPKVVPRP | -0.0761 |
| RRIRLRPPRLPRPRPRPKWSPRP | -0.171 |
| RRIRLRPPRLPRPRPRPKWWPRP | 0.396 |
| RRIRLRPPRLPRPRPRPKYPPRP | 0.0464 |
| RRIRLRPPRLPRPRPRPKYRPRP | 0.0356 |
| RRIRLRPPRLPRPRPRPLACPRP | -0.454 |
| RRIRLRPPRLPRPRPRPLCHPRP | -0.253 |
| RRIRLRPPRLPRPRPRPLCPPRP | -0.0651 |
| RRIRLRPPRLPRPRPRPLCQPRP | -0.125 |
